The Km is the substrate concentration at which the rate is half of its maximum. The Kd is the free concentration of one partner at which half of the binding sites on the other are occupied at equilibrium, for simple one-to-one binding.

Consider three molecules from patent publication US8071348B2, “Protein tyrosine phosphatase substrate-trapping double mutant and uses thereof” (Albert Einstein College of Medicine of Yeshiva University, priority 2002, dated 2011).

Changes are numbered by the printed parent chain. Names and notes keep the numbering of the source. Read-outs that look alike come from different tables or passages of the source. [ ]: non-standard residue; d: D form. F2Pmp = N[C@@H](Cc1ccc(C(F)(F)P(=O)(O)O)cc1)C(=O)O

Series [1] relates to EGFR^988-998 peptide, DADEpYLIPQQG. Description: Kinetic constants for PTP1B-catalyzed hydrolysis of pTyr-containing EGFR988-998 peptide. As to conditions: EGFR988-998 peptide as substrate. In kind it is biochemical. The source says:
(§1) The catalytic domain of PTP1B (residues 1 to 321) was used for in vitro study. PTP1B mutants, C215S, D181A, and Q262A, were described previously (9, 25, 26). PTP1B double mutants, D181A/C215S and C215S/Q262A, were generated by PCR reactions, according to the standard procedure of the Quick-Change™ site-directed mutagenesis kit (Stratagene), using pT7-7/PTP1B/C215S as a template. PTP1B double mutants, D181A/C215E and D181A/Q262A, were generated by similar PCR procedures, using pT7-7/PTP1B/D181A as a template. The recombinant wild-type and mutant PTP1Bs were expressed in E. coli, and purified to homogeneity as described (25, 27). Protein concentration was determined from absorbance measurement at 280 nm, using an absorbance coefficient of 1.24 for 1 mg/ml PTP1B.
(§2) All assays were performed at 25° C. in buffer (pH 7.0, ionic strength=0.15 M) containing 50 mM 3,3-dimethylglutarate and 1 mM EDTA. A continuous spectrophotometric assay, previously described (28), was employed to determine kcat and Km for the pTyr-containing peptides. The dephosphorylation reaction was monitored by either an increase in absorbance at 282 nm, or an increase in fluorescence at 305 nm. Fluorometric and absorbance determinations were performed on a Perkin-Elmer LS50B fluorometer and a Perkin-Elmer Lambda 14 spectrophotometer, respectively. The instruments were equipped with a water-jacketed cell holder, permitting maintenance of the reaction mixture at the desired temperature (25° C.).

The target of series [2] is T1, EGFR^988-998 peptide, DADEpYLIPQQG (Homo sapiens, UniProt P18031, D181A).
T1 construct: The catalytic domain of PTP1B (residues 1 to 321) was used for in vitro study; made in house; host or cells: E. coli (pT7-7 plasmids)
T1 sequence (P18031 1-321 D181A): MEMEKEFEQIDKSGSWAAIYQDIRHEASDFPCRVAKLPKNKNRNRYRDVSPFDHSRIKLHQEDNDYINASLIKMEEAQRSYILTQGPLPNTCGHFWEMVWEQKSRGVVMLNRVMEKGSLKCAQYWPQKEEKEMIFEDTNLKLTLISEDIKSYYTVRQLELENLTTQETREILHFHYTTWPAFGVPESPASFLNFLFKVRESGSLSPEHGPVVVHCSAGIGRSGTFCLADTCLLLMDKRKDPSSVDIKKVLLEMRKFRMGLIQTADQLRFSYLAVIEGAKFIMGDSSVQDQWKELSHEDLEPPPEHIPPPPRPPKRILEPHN
The series is described as above. In kind it is biochemical. As to conditions: EGFR988-998 peptide as substrate.
Excerpt: as §1, §2

Series [3] deals with Ac-Asp-Ala-Asp-Glu-F2Pmp-Leu-NH2. The following applies: cited from earlier work.
Series [4] has as its target T2, EGFR 988-998 peptide DADEpYLIPQQG.
T2 chain: DADEXLIPQQG

Series [5] concerns EGF receptor. As to the kind of experiment: Substrate protection: EGF receptor tyrosine phosphorylation in COS1 cells expressing PTP1B forms (anti-pTyr Western blot). In kind it is cell-based, Monkey. As to conditions: COS1 cell lysates, anti-pTyr immunoblot (FIG. 4). As for the experimental part:
FIG. 4 sets forth Western blots (WB) that show the level of tyrosine phosphorylation in the epidermal growth factor receptor (EGFR) upon expression of the wild-type and mutant PTP1Bs (4 μg plasmid/60 mm dish) in COS1 cells. Samples (50 μg total protein) were taken from the lysates of COS1 cells transfected with 4 μg of pJ3H plasmids expressing HA-tagged wild-type PTP1B, D181A, C215S, D181A/Q262A, or D181A/C215S. These samples were loaded into each lane for SDS-PAGE electrophoresis, and transferred onto a nitrocellulose membrane. The proteins on the membrane were first immunoblotted with anti-pTyr HRP conjugate (upper panel). The membrane was then stripped and re-probed with anti-hemagglutinin (anti-HA) HRP conjugate (lower panel).
The hemagglutinin-tagged (HA-tagged) full-length human wild-type PTP1B in pJ3H expression vector was a gift from Dr. Chemoff (30). The HA-tagged PTP1B mutants, C215S, D181A, D181A/C215S, and D181A/Q262A, were generated by PCR reactions, according to the standard procedure of the Quick-Change™ site-directed mutagenesis kit (Stratagene), using pJ3H-HA-PTP1B as a template. All mutations were verified by DNA sequencing.
Monkey kidney COS1 cells (ATCC: CRL-1650) were maintained in Dulbecco's modified Eagle's minimum essential medium (DMEM), supplemented with 10% fetal bovine serum (Life Technologies, Inc.), penicillin (50 units/ml), streptomycin (50 μg/ml), and L-glutamine (2 mM) under a humidified atmosphere containing 5% CO2. In transient transfection experiments, COS1 cells were inoculated at a density of 2×10^5 cells/60-mm dish, and grown overnight in DMEM containing 10% fetal bovine serum. Transfection was performed using LipoTAXI^R according to the manufacturer's recommendations (Stratagene, Cedar Creek, Tex.). Each transfection assay included 4 μg of purified DNA mixed with LipoTAXI^R in a 1:5 DNA:lipid ratio per 60-mm dish of cells. Following transfection, the cells were exchanged to normal culture medium, and maintained for 44 to 48 h at 37° C. and 5% CO2. The efficiency of transfection, as assessed by 5-bromo-4-chloro-3-indolyl-β-D galactoside (X-Gal) staining of pCMV-β-gal-transfected (β-Gal staining kit, Invitrogen) COS cells, was 25%.
The transfected cells (treated with or without EGF) were lysed with “lysis buffer” containing 50 mM Tris-HC1 (pH 7.5), 5 mM EDTA, 150 mM NaCl, 10 mM sodium phosphate, 10 mM sodium fluoride, 5 mM iodoacetic acid, 1 mM benzamidine, 1% Triton X-100, 10 μg/ml leupeptin, and 5 μg/ml Aprotinin. Lysate protein concentration was estimated using Bio-Rad protein assay reagent (Bio-Rad, Hercules, Calif.).
For immunoprecipitation, 1 mg of cell lysate was immunoprecipitated overnight with 30 μl of agarose-conjugated anti-hemagglutinin antibody at 4° C. Immunocomplexes were washed four times with the cell lysis buffer, and boiled for 5 min in SDS-PAGE sample buffer. Proteins in the cell lysate were separated by 8% SDS-PAGE under reducing conditions, according to the method of Laemmli (31), followed by blotting onto nitrocellulose membranes (Protran, Schleicher & Schuell). The nitrocellulose membranes were blocked with 5% non-fat dry milk in Tris-buffered saline/Tween (TBST) buffer (20 mM Tris-HC1, 150 mM NaCl, 0.1% Tween-20; pH 7.6) for 1 h at 25° C.
Thereafter, blots were incubated overnight with primary antibodies diluted in TBST containing 5% non-fat dry milk at 4° C. […]
A general note: In western blotting, separated proteins are transferred to a membrane and probed.

A short description of series [6]: Kinetic constants for PTP1B-catalyzed hydrolysis of pNPP. The following applies: pNPP as substrate. The series is classed as biochemical.
Excerpt: as §1
PTP activity was assayed at 25° C. and pH 7.0, in a reaction mixture (0.2 ml) containing pNPP concentrations ranging from 0.2 to 5 Km. The following buffered solution was used for activity measurements: pH 7.0, 50 mM 3,3-dimethylglutarate, 1 mM EDTA; the ionic strength was 0.15 M, as adjusted by addition of NaCl. Initial rate measurements for the enzyme-catalyzed hydrolysis of pNPP were conducted as previously described (26). Michaelis-Menten kinetic parameters were determined from a direct fit of the data to the Michaelis-Menten equation, using the nonlinear regression program, KINETASYST (Intellikinetics, State College, Pa.).

In series [7] the target is T3, Ac-Asp-Ala-Asp-Glu-F2Pmp-Leu-NH2.
T3 construct: Synthetic hexapeptide printed in three-letter code; also called F2Pmp-containing peptide; non-hydrolyzable substrate analog
T3 peptide: Ac-DADE[F2Pmp]L-NH2
As to the kind of experiment: ITC; complex titration curve, no Kd obtained. A general note: In ITC the heat of successive injections is recorded.

Series [8] shares this target. As to the kind of experiment: ITC, 25 C, pH 7.0. The protocol:
(§3) All isothermal titration calorimetry experiments were performed using an MCS Isothermal Titration Calorimetry System from Microcal Inc. (Northampton, Mass.). Experiments at pH 7.0 were conducted at 25° C., in 50 mM 3,3-dimethylglutarate buffer containing 1 mM DTT. The ionic strength of the buffer was adjusted to 0.15 M by addition of NaCl. Protein concentration in the calorimeter cell was 27-85 µM, while the ligand concentration in the syringe was 0.37-1 mM.
(§4) A typical titration curve and binding isotherm for the binding of D181A/Q262A to Ac-Asp-Ala-Asp-Glu-F_2Pmp-Leu-NH_2 is shown in FIG. 3. From curve-fitting of the binding isotherms, the stoichiometry for the binding of the peptide to D181A/Q262A was determined to be 1:1.

The target of series [9] is Ac-Asp-Ala-Asp-Glu-F2Pmp-Leu-NH2. Description: Isothermal titration calorimetry, binding of PTP1B and mutants to F2Pmp peptide. The following applies: ITC, 25° C. and pH 7.0; data from this study. The protocol:
FIG. 3 portrays calorimetric isothermal titration for the reaction of peptide Ac-Asp-Ala-Asp-Glu-F2Pmp-Leu-NH2 with PTP1B/D181A/Q262A. The upper graph depicts raw data for thirty 8-μl injections of the peptide (0.5 mM stock) into the isothermal cell containing 32 μM PTP1B/D181A/Q262A, at 4-min intervals and 25° C. Both the protein and the peptide were in 50 mM 3,3-dimethylglutarate buffer (I=0.15 M, pH 7.0) containing 1 mM DTT. The lower graph depicts an integration curve showing experimental points that were obtained by integration of the above peaks as plotted against the molar ratio of the peptide to PTP1B/D181A/Q262A within the reaction cell. The solid line corresponds to the best fit to the data according to the nonlinear, least-squares regression algorithm, ORIGIN (29).
All isothermal titration calorimetry experiments were performed using an MCS Isothermal Titration Calorimetry System from Microcal Inc. (Northampton, Mass.). […] The ionic strength of the buffer was adjusted to 0.15 M by addition of NaCl. Protein concentration in the calorimeter cell was 27-85 μM, while the ligand concentration in the syringe was 0.37-1 mM.
The PTP1B samples used in the isothermal titration calorimetry experiments were dialyzed completely against buffer. High-concentration stock solutions were prepared for ligands with distilled water, and adjusted to pH 7.0. Stock was diluted at least 26-fold with 50 mM 3,3-dimethylglutarate buffer before titration. Protein dilution during titration was determined by titration of buffer into the protein solution. […] The heat of ligand dilution was corrected by subtracting the average heat of injection after saturation.
The binding data were analyzed using ORIGIN software (29). Binding constant, K, and enthalpy change, ΔH, were used to calculate free energy change, ΔG, and entropy change, ΔS, according to equation [1]: −RTLnK=ΔG=ΔH−TΔS [1] where R is the gas constant and T is the absolute temperature.

Series [10] has as its target T3, Ac-Asp-Ala-Asp-Glu-F2Pmp-Leu-NH2. Description: ITC, 25 C, pH 7.0. As for the experimental part:
as §3
The PTP1B samples used in the isothermal titration calorimetry experiments were dialyzed completely against buffer. High-concentration stock solutions were prepared for ligands with distilled water, and adjusted to pH 7.0. […] Protein dilution during titration was determined by titration of buffer into the protein solution. […] The heat of ligand dilution was corrected by subtracting the average heat of injection after saturation.
as §4

B1: PTP1B/D181A, catalytic domain (residues 1 to 321) (protein)
chain: T1 sequence (P18031 1-321 D181A)
In the case of B1, in series [1] (25° C. and pH 7.0), the Km turned out to be 56 ± 2 µM and the kcat entry is recorded as “(6.5 ± 0.2) × 10^−2 s^−”. Moreover, in [2], the “Km, fold higher than PTP1B (wild-type)” value amounted to 22 fold and the “kcat, fold lower than PTP1B (wild-type)” value was found to be 920 fold. Moreover, the “binding, fold tighter than the C215S mutant” value in series [3] (F2Pmp peptide, previously determined (24)) is listed as 5 fold. In addition, in series [3] (ITC, 25° C. and pH 7.0, data from (24)), the Kd is 40 ± 10 nM. In addition, the Km (hydrolysis of the EGFR 988-998 peptide, 25 C, pH 7.0) in [4] was determined as 56 µM. Besides, the “level of pTyr in the EGF receptor / enhancement of EGF receptor phosphorylation” value in series [5] was “higher in cells expressing the D181A, rather than the C215S, mutant”. Also, in series [6], the “Km, fold lower than wild-type enzyme” value is on record as 30 fold and the “kcat, fold lower than wild-type enzyme” value is recorded as 320 fold. For the same molecule, in series [6] (25° C. and pH 7.0), the Km is 80 ± 30 µM and the kcat entry is “(3.1 ± 0.3) × 10^−2 s^−1”.

B2: PTP1B/D181A/C215S, catalytic domain (residues 1 to 321) (enzyme, human, UniProt P18031 1-321, looked up)
chain: T1 sequence (P18031 1-321 D181A) with C215S
With B2, the phosphatase activity entry in series [1] is listed as “no measurable activities”. Besides, the binding stoichiometry in [7] was 0.1. In addition, in series [5], the “level of pTyr in the EGF receptor / enhancement of EGF receptor phosphorylation” value is on record as “comparable affinity to that of C215S”.

B3: PTP1B/D181A/C215E, catalytic domain (residues 1 to 321) (enzyme, human, UniProt P18031 1-321, looked up)
chain: T1 sequence (P18031 1-321 D181A) with C215E
notes: range 1-321; Used in vitro (ITC)
For B3, the phosphatase activity entry in series [1] was “no measurable activities”. In series [8], the “fold lower affinity than the C215S mutant” value was determined as 7 fold and the “fold lower affinity than the D181A mutant” value was determined as 32 fold. Besides, in series [9], the Kd stood at 1300 nM. In series [10], the TΔS was -20.4 kcal/mol, the ΔG is -8 kcal/mol and the ΔH is -28.4 kcal/mol.
